Assay [1] has as its target T1, human Gal10-His (human, UniProt Q05315 2-142, limits assumed).
T1 construct: also called hGal10-His; human Gal10-His tagged; not shown: His tag
T1 sequence: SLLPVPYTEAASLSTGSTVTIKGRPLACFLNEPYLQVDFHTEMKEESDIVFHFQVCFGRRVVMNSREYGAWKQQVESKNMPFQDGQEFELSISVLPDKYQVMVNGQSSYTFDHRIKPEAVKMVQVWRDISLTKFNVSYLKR
Put plainly: SPR, summary table, human Gal10.

Assay [2] has as its target T1, human Gal10-His. Put plainly: SPR Biacore 3000, purified hFab (2 conc.) on Gal10-His captured by anti-His CM5. The protocol:
(§1) The binding properties of the selected Fab clones to human Gal10 were analyzed via a capture method established on a Biacore 3000 instrument. Two concentrations of the selected Fab clones were tested on human Gal10-His immobilized on a CM5 chip coated with a monoclonal anti-His. As controls, the clone g7B07 and g7B07_N53A were injected at the beginning and the end of the run. Briefly, a CM5 chip was coated with a monoclonal anti-His antibody (4000 RU), then a fixed concentration of the human Gal10-His (25 μg/mL) was captured on the anti-His chip before receiving two concentrations of the clones in the human Fab backbone.

Assay [3] has as its target T1, human Gal10-His. Put plainly: SPR slope against calibrators on captured Gal10-His; T0 sample. How it is done:
(§2) The binding properties of the seven selected clones following two weeks of temperature stress was analysed using an optimized capture method on a Biacore 3000 instrument. The binding properties of the stressed samples were determined, compared to the calibration point, and expressed as a percentage of Relative Activity (% RA).
(§3) Briefly, a capture method was set-up on a Biacore 3000 instrument. For this purpose, a CM5 chip was coated with a monoclonal anti-His antibody (4000 RU), then a fixed concentration of the human Gal10-His (25 μg/mL) was captured on the anti-His chip before receiving duplicate injections of the calibrators, QC samples and temperature stressed samples of each clone. The slope of each injected sample was then calculated using the BIA evaluation software. Concentrations of the QC samples and temperature stressed samples were back-calculated by interpolating the obtained slopes of these samples to the calibrator curve. Obtained values were within +/−20% of the nominal concentration of the tested samples and are expressed as average relative accuracy (avg % RA) (Table 13).

Assay [4] has as its target T1, human Gal10-His. Put plainly: SPR against T0 reference; sample 4 weeks at 37 C. How it is done:
(§4) The functional active concentration of the candidates was then assessed by SPR on a Biacore 3000 instrument (FIG. 4). All samples were evaluated with methods meeting the standard qualification criteria. Aliquots were tested at predefined test concentrations against titration curves from reference samples (T0, −80° C. storage) and in the presence of quality control (QC) samples covering a range of 70-130% relative activity (% RA) towards the reference material.
(§5) comparison/reference ⁽¹⁾ samples correspond to aliquots kept at +37° C. for 4 weeks ⁽²⁾ samples correspond to aliquots kept at +5° C. for 4 weeks prior to nebulization. In brief, samples were nebulized with an Aerogen Solo active vibrating mesh nebulizer that converted a drug solution into an inhalable aerosol. Three different devices for each time-point were used per clone and results are reported by the device (nebulizer) serial number. In case of device fouling, indicated by longer nebulization times […]

The target in assay [5] is T2, recombinant human Charcot-Leyden crystals (crystalline galectin-10) (human, UniProt Q05315 2-142, limits assumed).
T2 sequence: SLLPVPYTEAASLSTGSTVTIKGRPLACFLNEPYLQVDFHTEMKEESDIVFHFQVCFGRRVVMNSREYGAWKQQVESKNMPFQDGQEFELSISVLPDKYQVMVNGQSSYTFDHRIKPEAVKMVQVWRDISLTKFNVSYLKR
Nature of the assay: cell-based or functional assay.

Assay [6] has as its target T3, cynomolgus Gal10-His (WGS isoform) (cynomolgus).
T3 construct: also called cynomolgus antigen
Nature of the assay: SPR, summary table, cynomolgus_WGS Gal10.

Assay [7] has as its target T1, human Gal10-His. Nature of the assay: SPR Biacore 3000, purified hFab on captured Gal10-His. The protocol: as §1
The target of assay [8] is T1, human Gal10-His. Put plainly: competition ELISA on coated Gal10-His; hFab 20 ug/mL, competitor g7B07-hFab-Biot, streptavidin-HRP. How it is done: An epitope binning analysis of the humanized Fab clones was carried out in comparison with the humanized Fab of g7B07.
For this experiment, a sub-optimal concentration of the biotinylated clone g7B07-humanized Fab was added to the Gal10 coated plate and pre-incubated with the selected clones. The percentage competition with g7B07 was then determined (Table 17). Motavizumab (Mota) in a human Fab backbone was used as a negative control (0% competition). Clone g7B07 was used as the positive control for competition and was therefore set as the 100% competition value. The anti-human specific clone 1D11 (binding to Tyrosine 69 residue) was included in the tested panel as a negative control for competition with 7B07 for Gal10 binding because it was known that clone 1D11 binds to the opposite side of Gal10 (including Tyrosine 69).

Assay [9] deals with T1, human Gal10-His. Nature of the assay: SPR Biacore 3000, Fab periplasmic extract on Gal10-His-coated CM5. How it is done: The binding properties of the Fabs (periplasmic extract) to human Gal10-His were analyzed by SPR with a Biacore 3000 instrument. For this purpose, the diluted periplasmic extract was applied on a CM5 chip coated with human Gal10-His. As a positive control, a 20 nM injection of the purified g7B07 clone in the human Fab backbone was included at the beginning and end of the run.
The binding capacity of the Fab periplasmic extract was analyzed by SPR technology using a Biacore 3000. Briefly, diluted periplasmic extracts were injected on CM5 chip coated with 2500 RU of Gal10-His. The amplitude of the binding (Rmax), the dissociation (off-rate) of each clone, as well as the off-rate fold change compared to the controls (g7B07 and g7B07_N53A) are indicated. Clones g20H09 and g23H09 had similar or better off rate compared to the control g7B07 (Table 10). The randomized part of the CDR2 sequence is underlined (Table 10).

Assay [10] concerns the target T1, human Gal10-His. Put plainly: SPR against T0 reference; sample 4 weeks at 5 C, then nebulized. How it is done: as §4, §5
The target in assay [11] is T1, human Gal10-His. Nature of the assay: SPR slope against calibrators on captured Gal10-His; sample 2 weeks at 37 C. The protocol:
as §2, §3

In assay [12] the target is T1, human Gal10-His. Nature of the assay: summary of periplasmic extract screening (BLI or SPR).
The target of assay [13] is T1, human Gal10-His. Put plainly: SPR, overview table of lead Fab candidates.
The target of assay [14] is T1, human Gal10-His. Put plainly: SPR Biacore 3000, control on Gal10-His-coated CM5. The protocol:
The off-rate of the remaining 25 clones of the ELISA experiment was determined by SPR on a Biacore 3000 instrument. Periplasmic extracts were injected on a CM5 sensor chip coated with 2500 RU Gal10-His.

Assay [15] addresses T1, human Gal10-His. Put plainly: summary of periplasmic extract screening (BLI or SPR); control.
Assay [16] deals with T1, human Gal10-His. Nature of the assay: SPR Biacore 3000, hFab on human Gal10-His captured by anti-His CM5. How it is done:
(§6) The binding properties of the selected clones to human and cynomolgus Gal10 was analyzed via a capture method established on a Biacore 3000 instrument.
(§7) For this purpose, two approaches were used. In the first, two concentrations of the selected clones were applied on cynomolgus (WGS isoform) Gal10-His capture on a CM5 chip coated with a monoclonal anti-His antibody. The second approach involved a serial dilution that was applied on human or cynomolgus (WGS isoform) Gal10-His in the same set-up.

Assay [17] deals with T1, human Gal10-His. Put plainly: SPR Biacore 3000, hFab on captured human Gal10-His; column head prints (M), the text gives nM. The protocol: as §6, §7
Assay [18] addresses T1, human Gal10-His. Put plainly: BLI Octet RED96, Gal10-His captured on anti-Penta-His tips.
Assay [19] deals with T3, cynomolgus Gal10-His (WGS isoform). Put plainly: SPR Biacore 3000, hFab on cynomolgus Gal10-His (WGS) captured by anti-His CM5. The protocol:
as §6, §7

Assay [20] has as its target T1, human Gal10-His. Nature of the assay: SPR Biacore 3000, purified hFab 20 nM on Gal10-His-coated CM5.
Assay [21] has as its target T3, cynomolgus Gal10-His (WGS isoform). Nature of the assay: SPR Biacore 3000, hFab on captured cynomolgus Gal10-His (WGS); column head prints (M), the text gives nM. How it is done: as §6, §7

B1: g20H09 (Fab) (Fab, V domains shown)
VH: EVQLLESGGGLVQPGGSLRLSCAASGFTFRSYDMSWVRQAPGKGLEWVSAIKWHRITYYADSVKGRFTISRDNSKNTLYLQMNSLRAEDTAVYYCATTHGIGTLGFGSWGQGTLVTVSS
VL: SYELTQPLSVSVALGQTARITCDGNNIGSKSAQWYQQKPGQAPVLVIYADEYRPEGIPERFSGSNSGNTATLTISRAQAGDEADYYCQVWDGSAAVFGGGTQLTVL
notes: same VH/VL
As to B1, in assay [1], the affinity, expressed as Kd, was 17.5 nM and the koff was 0.015 s⁻¹. Also, in [2], the Kd came out at 17.5 nM, the “kd-fold drop vs g7B07” value worked out at 0.3 fold, the dissociation rate constant (koff) amounted to 0.015 s⁻¹ and the kon was found to be 860000 M⁻¹ s⁻¹. In addition, in [3], the “% Relative Activity (RA) on Biacore” value is 110%. In assay [4], the “% relative activity by SPR” value was found to be 101%. Moreover, in assay [5], the “crystal dissolution % Relative Activity towards the reference T0 after 2 h, nebulized” value was 66%; the “crystal dissolution % Relative Activity towards the reference T0 after 2 h, stressed” value was found to be 96%; the “recGal10 crystal dissolution EC50 (T2 h), Assay 1, nebulized” value came to 395 µg/mL; the “recGal10 crystal dissolution EC50 (T2 h), Assay 1, stressed (4 W at 37 C)” value came out at 272 µg/mL. The “recGal10 crystal dissolution EC50 (T2 h), Assay 1, unstressed (T0)” value in [5] came to 260 µg/mL. In assay [6], this molecule showed a Kd of 22 nM and a koff of 0.046 s⁻¹. The “fold higher dissociation rate than g7B07” value in [7] stood at 3 fold. In addition, in [8], the “% Competition against g7B07-Biot” value is 93.2% and the “Mean OD value” stood at 0.33 OD. Also, in assay [9], the “Fold off-rate compared to g7B07” value came out at 1.3 fold and the koff is 0.0088 s⁻¹. In addition, the “% relative activity by SPR” value in assay [10] was 97%. Moreover, the “% Relative Activity (RA) on Biacore” value in assay [11] came to 86%. In assay [12], the “kd, fold compared to g7B07 (BLI or SPR)” value came out at 0.8 fold. Also, in [13], binding was put at a Kd of 17.7 nM and the koff was 0.047 s⁻¹.

B2: g7B07 (human Fab) (Fab, V domains shown)
VH: EVQLLESGGGLVQPGGSLRLSCAASGFTFRSYDMSWVRQAPGKGLEWVSAIKNGGGITYYADSVKGRFTISRDNSKNTLYLQMNSLRAEDTAVYYCATTHGIGTLGFGSWGQGTLVTVSS
VL: SYELTQPLSVSVALGQTARITCDGNNIGSKSAQWYQQKPGQAPVLVIYADEYRPEGIPERFSGSNSGNTATLTISRAQAGDEADYYCQVWDGSAAVFGGGTQLTVL
notes: Human Fab backbone; their format is not certain; also called g7B07-hFab; germlined 7B07
As to B2, the “Fold off-rate compared to g7B07” value in assay [14] and in assay [20] was 1 fold throughout. Further, the koff in assay [14] was determined as 0.00218 s⁻¹; in [16] it was 0.006 s⁻¹; in assay [2], 0.0047 s⁻¹; in assay [18], 0.00754 s⁻¹; in assay [19], 0.13 s⁻¹; in assay [20] it was 0.0069 s⁻¹. For the same molecule, the “kd, fold compared to g7B07 (BLI or SPR)” value in assay [15] was determined as 1 fold. Further, the “Amplitude R0” value in [16] amounted to 607 RU; in assay [19], 64 RU. The kon is 670000 M⁻¹ s⁻¹ in assay [16], 420000 M⁻¹ s⁻¹ in [2] and 1.9e+06 M⁻¹ s⁻¹ in assay [19]. In addition, the Kd in [2] stood at 11.1 nM; in assay [17] it was 9.08 nM; in assay [21], 69.5 nM. In addition, in assay [2], the “kd-fold drop vs g7B07” value stood at 1 fold. Further, the “kd fold difference to reference” value in [18] was determined as 1 fold.

The values are drawn from US20250059285A1 (ARGENX, published 2025).
